This note sets out measurements from article PMC2645338.

Assay [1] has as its target mitochondrial 28S small ribosomal subunit (bovine). Nature of the assay: Microcon-100 centrifugation with dot blot immunodetection.
Assay [2] concerns the target C-terminal domain of IF3mt with the linker, His6-tagged (human). Nature of the assay: SPR. (SPR reads the build-up and loss of mass on a sensor chip optically.)
Assay [3] addresses mitochondrial 28S small ribosomal subunit (bovine). The experiment in a line: co-sedimentation.
The target is the same in assay [4]. Nature of the assay: dot blot of epitope exposure.

In turn, “untagged C-domain of IF3mt with the linker (His-tag removed with TEV protease) (domain or fragment)” displayed a Kd in assay [1] of 70 nM.
As to “mitochondrial 28S small ribosomal subunit (complex)”, in assay [2], the Kd came out at 44 nM, the off-rate (koff) stood at 0.0092 s⁻¹ and the kon came out at 210000 M⁻¹ s⁻¹.
Regarding “untagged IF3mt (mature full-length form, His-tag removed with TEV protease) (from UniProt Q9H2K0 32-278) (natural protein)”, the Kd in assay [1] turned out to be 40 nM.
Still for that read-out and setting: the same measure for “untagged N-domain of IF3mt with the linker (His-tag removed with TEV protease) (domain or fragment)”: 232 nM.
Take “C-terminal domain of IF3mt with the linker, His6-tagged (domain or fragment)”: the Kd in assay [1] stood at 60 nM. This Kd is about 3.9-fold lower than that of the substance before.
“mitochondrial initiation factor 3, mature full-length form, His-tagged (from UniProt Q9H2K0 32-278) (natural protein)” returned an equilibrium dissociation constant (Kd) in assay [3] of 35 nM. Also, the quenching of the antigenic response on binding in assay [4] came out at 80%.
For the substance “N-terminal domain of IF3mt with the linker, His6-tagged (domain or fragment)”, the Kd in assay [3] came out at 277 nM; in assay [1], 240 nM.
“C-terminal domain of IF3mt without the linker, His6-tagged (domain or fragment)” returned a Kd in assay [1] of 95 nM. This lies in the double-digit nanomolar range.
The same measure, in the same setting: the same measure for “N-terminal domain of IF3mt without the linker, His6-tagged (domain or fragment)”: 390 nM.

What is called Kd is the constant that tells how readily two partners part at equilibrium. Lower therefore signals higher affinity. The term koff denotes the rate constant with which the complex falls apart. A higher koff goes with fast dissociation. By kon is commonly meant the second-order rate constant of association.
